Among the data in publication PMC11166458, “Caskin2 is a novel talin- and Abi1-binding protein that promotes cell motility” (Journal of Cell Science, 2024) are Kd values, retold here.

The assay has as its target talin-R7/R8 (residues 1358–1653) (mouse, UniProt P26039 1358-1653). In words: MST; Atto488-labeled peptide at 50–200 nM, serial dilution of recombinant R7R8 talin; 20 mM Tris-HCl pH 7.5, 200 mM NaCl, 1 mM TCEP, 0.05% Tween-20; Monolith NT.115. The conditions noted are these: both partners purified.

No end group written: not given here.

The Kd is a measure of binding affinity in units of concentration.

B1: Atto488-labeled Caskin2-LD peptide (peptide, UniProt Q8WXE0 1187-1202, looked up)
peptide: STMFDALADQLDAMLD
modifications: also: Atto488 label
notes: Caskin2 C-terminal LD motif peptide; limits 1187–1202 are printed for the Caskin2-LD peptide in the legend of the structure; The text names L1183 as a contact residue of the peptide, which lies outside 1187–1202; source: synthetic peptide (MPIB Core Facility)
B1: the Kd was approximately 2700 nM.
